Assay results from the supplement of paper PMC11196671.

Key:
[1] = BHET released, HPLC; higher = more BHET released; extreme values may be limits of the assay; settings: 24 h
Description: (§1)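 Purified PET hydrolases, 2.5 ug enzyme on 3.5 mg amorphous PET film (aFilm) or crystalline PET powder (cryPow) in 0.5 mL of 50 mM buffer (NaCitrate pH 4.5/5.5, NaPhosphate 6.5/7.5, glycine 8.5/9.5) at 60 or 70 C with shaking for 24 h. Total aromatic product by UV-Vis (260/280 nm, blank-subtracted, normalised per mg enzyme) and individual TPA, MHET, BHET concentrations by UHPLC-DAD at 240 nm; duplicate reactions.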

[2] = MHET released, HPLC; higher = more MHET released; extreme values may be limits of the assay; settings: 24 h
Description: as §1

[3] = PET hydrolysis product formed (TPA+MHET+BHET, UV-Vis) per mg enzyme (mmol/mg enzyme); higher = more PET depolymerisation activity; extreme values may be limits of the assay; settings: 2 h
Description: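 Purified PET hydrolases (His-SUMO cleaved, E. coli C41(DE3) small-scale expression), 2.5 ug enzyme on 3.5 mg amorphous PET film (aFilm) or crystalline PET powder (cryPow) in 0.5 mL of 50 mM buffer (NaCitrate pH 4.5/5.5, NaPhosphate 6.5/7.5, glycine 8.5/9.5) at 60 or 70 C with shaking for 2 h. Soluble aromatic products (TPA+MHET+BHET) were quantified by UV-Vis at 260/280 nm, blank-subtracted against the no-enzyme control, and normalised per mg enzyme; duplicate reactions.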

[4] = as above; settings: 24 h
Description: as §1

SNPYQRGPNPTRSALTADGPFSVATYTVSRLSVSGFGGGVIYYPTGTSLTFGGIAMSPGYTADASSLAWLGRRLASHGFVVLVINTNSRFDGPDSRASQLSAALNYLRTSSPSAVRARLDANRLAVAGHSMGGGGTLRIAEQNPSLKAAVPLTPWHTDKTFNTSVPVLIVGAEADTVAPVSQYAIPFYQNLPSTTPKVYVELCNASHIAPNSDNAAISVYTISWMKLWVDNDTRYRQFLCNVNDPALCDFRTNNRHCQ [LCC-A2]
Settings | BHET released, [1] [mM] | MHET released, [2] [mM] | PET hydrolysis product formed, [3] | PET hydrolysis product formed, [4]
PET substrate: aFilm, 60 °C, pH 4.5 | 0 | 0.107 | 0 | 0.0551
PET substrate: aFilm, 60 °C, pH 5.5 | 0 | 0.735 | 0.031 | 0.331
PET substrate: aFilm, 60 °C, pH 6.5 | 0 | 1.23 | 0.061 | 0.484
PET substrate: aFilm, 60 °C, pH 7.5 | 0 | 6.36 | 0.144 | 2.22
PET substrate: aFilm, 60 °C, pH 8.5 | 0 | 0.322 | 0.0742 | 0.195
PET substrate: aFilm, 60 °C, pH 9.5 | 0.0275 | 2.64 | 0.154 | 0.963
PET substrate: aFilm, 70 °C, pH 4.5 | 0 | 0 | 0 | 0
PET substrate: aFilm, 70 °C, pH 5.5 | 0.00399 | 0.429 | 0.0749 | 0.181
PET substrate: aFilm, 70 °C, pH 6.5 | 0 | 0.862 | 0.138 | 0.361
PET substrate: aFilm, 70 °C, pH 7.5 | 0.0146 | 8.82 | 0.418 | 2.87
PET substrate: aFilm, 70 °C, pH 8.5 | 0 | 0.253 | 0.09 | 0.171
PET substrate: aFilm, 70 °C, pH 9.5 | 0 | 2.25 | 0.423 | 0.934
PET substrate: cryPow, 60 °C, pH 4.5 | 0.0062 | 0.1017 | 0.0208 | 0.0357
PET substrate: cryPow, 60 °C, pH 5.5 | 0 | 0.24 | 0.0469 | 0.0766
PET substrate: cryPow, 60 °C, pH 6.5 | 0 | 0.476 | 0.062 | 0.152
PET substrate: cryPow, 60 °C, pH 7.5 | 0 | 0.733 | 0.127 | 0.261
PET substrate: cryPow, 60 °C, pH 8.5 | 0 | 0.261 | 0.0645 | 0.0909
PET substrate: cryPow, 60 °C, pH 9.5 | 0 | 0.281 | 0.0424 | 0.195
PET substrate: cryPow, 70 °C, pH 4.5 | 0 | 0.0080455 | 0 | 0
PET substrate: cryPow, 70 °C, pH 5.5 | 0 | 0.168 | 0.0282 | 0.0541
PET substrate: cryPow, 70 °C, pH 6.5 | 0 | 0.421 | 0.0641 | 0.139
PET substrate: cryPow, 70 °C, pH 7.5 | 0 | 0.748 | 0.107 | 0.334
PET substrate: cryPow, 70 °C, pH 8.5 | 0 | 0.293 | 0.0569 | 0.0995
PET substrate: cryPow, 70 °C, pH 9.5 | 0 | 0.189 | 0.0859 | 0.205

ANPYERGPNPTDALLEARSGPFSVSEENVSRLSASGFGGGTIYYPRENNTYGAVAISPGYTGTEASIAWLGERIASHGFVVITIDTITTLDQPDSRAEQLNAALNHMINRASSTVRSRIDSSRLAVMGHSMGGGGSLRLASQRPDLKAAIPLTPWHLNKNWSSVTVPTLIIGADLDTIAPVATHAKPFYNSLPSSISKAYLELDGATHFAPNIPNKIIGKYSVAWLKRFVDNDTRYTQFLCPGPRDGLFGEVEEYRSTCPF [TfCut2]
Settings | BHET released, [1] [mM] | MHET released, [2] [mM] | PET hydrolysis product formed, [3] | PET hydrolysis product formed, [4]
PET substrate: aFilm, 60 °C, pH 4.5 | 0 | 0 | 0 | 0
PET substrate: aFilm, 60 °C, pH 5.5 | 0.00214 | 0.0544 | 0 | 0.0295
PET substrate: aFilm, 60 °C, pH 6.5 | 0.00244 | 0.0658 | 0.00338 | 0.0361
PET substrate: aFilm, 60 °C, pH 7.5 | 0.00625 | 0.213 | 0.0101 | 0.111
PET substrate: aFilm, 60 °C, pH 8.5 | 0 | 0.105 | 0.00697 | 0.0556
PET substrate: aFilm, 60 °C, pH 9.5 | 0 | 0.143 | 0.0114 | 0.133
PET substrate: aFilm, 70 °C, pH 4.5 | 0 | 0 | 0 | 0
PET substrate: aFilm, 70 °C, pH 5.5 | 0 | 0.00251 | 0 | 0
PET substrate: aFilm, 70 °C, pH 6.5 | 0 | 0.00766 | 0 | 0.0032
PET substrate: aFilm, 70 °C, pH 7.5 | 0 | 0 | 0.00351 | 0
PET substrate: aFilm, 70 °C, pH 8.5 | 0 | 0.0146 | 0.00376 | 0.0109
PET substrate: aFilm, 70 °C, pH 9.5 | 0 | 0 | 0.00877 | 0.0072
PET substrate: cryPow, 60 °C, pH 4.5 | 0 | 0 | 0 | 0
PET substrate: cryPow, 60 °C, pH 5.5 | 0 | 0.0126 | 0 | 0
PET substrate: cryPow, 60 °C, pH 6.5 | 0 | 0.0226 | 0 | 0.00709
PET substrate: cryPow, 60 °C, pH 7.5 | 0.0022 | 0.104 | 0 | 0.0369
PET substrate: cryPow, 60 °C, pH 8.5 | 0 | 0.0471 | 0 | 0.0198
PET substrate: cryPow, 60 °C, pH 9.5 | 0 | 0.0249 | 0.00389 | 0.0223
PET substrate: cryPow, 70 °C, pH 4.5 | 0 | 0 | 0 | 0
PET substrate: cryPow, 70 °C, pH 5.5 | 0 | 0 | 0 | 0
PET substrate: cryPow, 70 °C, pH 6.5 | 0 | 0 | 0 | 0
PET substrate: cryPow, 70 °C, pH 7.5 | 0 | 0 | 0 | 0
PET substrate: cryPow, 70 °C, pH 8.5 | 0 | 0.00527 | 0 | 0
PET substrate: cryPow, 70 °C, pH 9.5 | 0 | 0 | 0 | 0
